Read-outs that look alike come from different tables or passages of the source.

The record followed here is patent US20250051476A1 (ABDERA THERAPEUTICS, published 2025).

One assay deals with T1, DLL3 ECD (human, UniProt Q9NYJ7).
T1 construct: recombinant ECD aa 27-492; also called full length DLL3 ECD (aa 27-492, Cat #ab255797, Abcam); human DLL3.HIS
T1 sequence (antigen, looked up): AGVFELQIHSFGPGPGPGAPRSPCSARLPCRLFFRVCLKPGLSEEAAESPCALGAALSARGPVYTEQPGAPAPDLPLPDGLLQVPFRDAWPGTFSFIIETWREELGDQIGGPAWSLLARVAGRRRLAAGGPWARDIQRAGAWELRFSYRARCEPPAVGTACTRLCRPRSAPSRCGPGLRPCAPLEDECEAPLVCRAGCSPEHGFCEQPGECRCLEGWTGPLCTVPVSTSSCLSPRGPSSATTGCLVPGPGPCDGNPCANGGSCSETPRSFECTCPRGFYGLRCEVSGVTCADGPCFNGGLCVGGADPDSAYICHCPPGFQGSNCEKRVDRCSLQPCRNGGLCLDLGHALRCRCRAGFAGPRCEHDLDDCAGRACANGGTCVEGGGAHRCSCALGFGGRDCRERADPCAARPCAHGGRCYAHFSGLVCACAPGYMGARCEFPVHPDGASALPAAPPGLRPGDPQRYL
The experiment in a line: ELISA on coated full length DLL3 ECD (2 ug/ml), anti-hIgG-Fc-HRP, A450.

Assay [1] deals with T2, DLL3 on cells (SHP-77, NCI-H82, HEK-DLL3, membrane proteome array cells) (human, UniProt Q9NYJ7 27-618).
T2 construct: whole, on cells; also called hDLL3
T2 sequence (looked up): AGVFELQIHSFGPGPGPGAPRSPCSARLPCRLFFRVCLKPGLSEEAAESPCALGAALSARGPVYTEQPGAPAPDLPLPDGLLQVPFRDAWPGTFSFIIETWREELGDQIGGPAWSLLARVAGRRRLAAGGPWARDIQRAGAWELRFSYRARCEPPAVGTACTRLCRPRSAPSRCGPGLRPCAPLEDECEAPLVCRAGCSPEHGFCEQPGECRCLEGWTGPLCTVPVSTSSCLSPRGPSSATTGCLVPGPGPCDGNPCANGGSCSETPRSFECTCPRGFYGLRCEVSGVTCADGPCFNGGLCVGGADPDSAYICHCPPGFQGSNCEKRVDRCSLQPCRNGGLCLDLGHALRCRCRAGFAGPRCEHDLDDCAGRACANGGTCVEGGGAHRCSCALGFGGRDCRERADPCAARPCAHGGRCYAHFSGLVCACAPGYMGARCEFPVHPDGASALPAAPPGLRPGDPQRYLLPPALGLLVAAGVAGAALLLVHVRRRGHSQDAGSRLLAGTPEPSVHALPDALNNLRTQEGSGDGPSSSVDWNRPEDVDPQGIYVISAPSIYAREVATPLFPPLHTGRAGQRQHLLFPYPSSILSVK
Put plainly: flow cytometry on SHP-77 cells, Geomeans RL1-H.

Assay [2] has as its target T3, DLL3 EGF1-6(mIgG2aCH2-CH3) (human).
T3 construct: also called hDLL3 EGF domain construct; DLL3 EGF1-6 domain
T3 chain: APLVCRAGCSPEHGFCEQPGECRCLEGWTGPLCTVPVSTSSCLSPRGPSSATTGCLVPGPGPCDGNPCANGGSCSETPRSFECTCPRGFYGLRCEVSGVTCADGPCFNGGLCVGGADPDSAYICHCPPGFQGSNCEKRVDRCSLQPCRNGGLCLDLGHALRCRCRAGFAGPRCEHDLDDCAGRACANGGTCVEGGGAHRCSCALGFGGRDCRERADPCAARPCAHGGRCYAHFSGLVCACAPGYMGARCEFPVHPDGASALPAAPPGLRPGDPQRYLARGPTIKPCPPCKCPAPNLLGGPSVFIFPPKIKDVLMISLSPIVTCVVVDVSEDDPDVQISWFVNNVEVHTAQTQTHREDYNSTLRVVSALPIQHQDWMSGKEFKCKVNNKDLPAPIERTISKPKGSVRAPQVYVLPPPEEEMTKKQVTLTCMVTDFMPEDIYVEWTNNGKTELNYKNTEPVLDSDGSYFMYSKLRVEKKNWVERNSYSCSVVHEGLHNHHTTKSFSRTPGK
The experiment in a line: Octet BLI, VHH-Fc captured on AHC sensor, DLL3 EGF1-6-mIgG2a Fc titrated. For orientation: In BLI a coated tip is dipped into the sample, and binding shifts an interference pattern.

For assay [3], the target named is T2, DLL3 on cells (SHP-77, NCI-H82, …). Put plainly: flow cytometry on SHP-77 cells, Geomeans RL1-H. The source holds these as a separate data set. Background: In flow cytometry, cells or beads pass a laser one at a time.
A further assay concerns the target T4, mouse DLL3 (mouse, UniProt O88516 25-477, limits assumed).
T4 construct: also called mDLL3; murine DLL3
T4 sequence (looked up): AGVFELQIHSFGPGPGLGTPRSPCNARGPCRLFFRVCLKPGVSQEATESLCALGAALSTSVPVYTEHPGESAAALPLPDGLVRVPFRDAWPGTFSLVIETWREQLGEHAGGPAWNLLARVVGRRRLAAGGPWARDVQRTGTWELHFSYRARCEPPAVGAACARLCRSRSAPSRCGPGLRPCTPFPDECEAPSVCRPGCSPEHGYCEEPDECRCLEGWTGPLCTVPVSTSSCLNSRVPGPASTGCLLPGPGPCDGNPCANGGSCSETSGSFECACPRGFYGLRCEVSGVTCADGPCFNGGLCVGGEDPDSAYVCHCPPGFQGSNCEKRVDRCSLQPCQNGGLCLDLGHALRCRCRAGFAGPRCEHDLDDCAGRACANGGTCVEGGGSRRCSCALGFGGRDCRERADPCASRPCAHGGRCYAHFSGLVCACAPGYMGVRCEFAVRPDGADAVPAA
Put plainly: ELISA. A general note: In an ELISA, binding on a coated surface is turned into a signal by an enzyme label.

The target in assay [4] is T2, DLL3 on cells (SHP-77, NCI-H82, …). The experiment in a line: flow cytometry on DLL3 expressing SHP-77 cells.

B1: Sc16.23 (antibody, V domains shown)
VH: QVTLKESGPGILQPSQTLSLTCSFSGFSLSTSNTGIGWIRQPSGTGLEWLAHIWWNDDKYYNPSLKSRLTISKETSNNQVFLKITNVDTADTASYFCVQIGRDYSNYAWYFDVWGAGTTVTVSS
VL: QIVLTQSPAIMSASPGEKVTLTCSASSSVSSRYLYWYQQKPGSSPKLWIYSTSNLASGVPARFSGSGSGTSYSLIISSMEAEDAASYFCHQWSNYPLTFGAGTKLELK
For B1, the EC50 (read off the curve) – broadly, the concentration giving half of the maximal effect – with DLL3 ECD is about 0.8 nM.

B2: 126_zu2 (Fc fusion)
chain: QVQLVESGGGLVQPGGSLRLSCAASGITFSMYSMSWFRQAPGQGLELVAATTTFGSTNYADSVKGRFTISRDNSKNTLYLQMNSLRAEDTAVYYCAARFTSEEYWGQGTLVTVSSEPKSSDKTHTCPPCPAPEAEGAPSVFLFPPKPKDTLMISRTPEVTCVVVDVSHEDPEVKFNWYVDGVEVHNAKTKPREEQYNSTYRVVSVLTVLHQDWLNGKEYKCKVSNKALPSSIEKTISKAKGQPREPQVYTLPPSREEMTKNQVSLTCLVKGFYPSDIAVEWESNGQPENNYKTTPPVLDSDGSFFLYSKLTVDKSRWQQGNVFSCSVMHEALHNQYTQKSLSLSPG
notes: Humanized VHH-Fc
As to B2, the “EC50 (read off the curve)” value in assay [1] was about 0.1 nM; in assay [3] it was about 0.07 nM. Also, the binding result (in assay [2]; in the assay with mouse DLL3) was “no binding” in each case.

B3: 126_zu1 (Fc fusion)
chain: QVQLVESGGGLVQPGGSLRLSCAASGITFSMYSMSWFRQAPGQGLEAVAATTTFGSTNYADSVKGRFTISRDNSKNTLYLQMNSLRAEDTAVYYCAARFTSEEYWGQGTLVTVSSEPKSSDKTHTCPPCPAPEAEGAPSVFLFPPKPKDTLMISRTPEVTCVVVDVSHEDPEVKFNWYVDGVEVHNAKTKPREEQYNSTYRVVSVLTVLHQDWLNGKEYKCKVSNKALPSSIEKTISKAKGQPREPQVYTLPPSREEMTKNQVSLTCLVKGFYPSDIAVEWESNGQPENNYKTTPPVLDSDGSFFLYSKLTVDKSRWQQGNVFSCSVMHEALHNQYTQKSLSLSPG
notes: Humanized VHHFc
Regarding B3, the binding result in assay [4] is “binds”.
